In assay [1] the target is bovine serum albumin (BSA) (bovine, UniProt P02769 25-607). As to the kind of experiment: western blotting.
Assay [2] addresses T1, antigen comprising the amino acid sequence YKDWSEWGKAC (SEQ ID NO: 12).
T1 construct: Any carrier or conjugate is not described; also called screening antigen
T1 peptide: YKDWSEWGKAC
As to the kind of experiment: ELISA of hybridoma supernatants on the antigen comprising SEQ ID NO: 12. In general terms: An ELISA detects its analyte on a solid surface through an enzyme-linked reagent.

Chain of bovine serum albumin (BSA) (P02769 25-607 limits assumed): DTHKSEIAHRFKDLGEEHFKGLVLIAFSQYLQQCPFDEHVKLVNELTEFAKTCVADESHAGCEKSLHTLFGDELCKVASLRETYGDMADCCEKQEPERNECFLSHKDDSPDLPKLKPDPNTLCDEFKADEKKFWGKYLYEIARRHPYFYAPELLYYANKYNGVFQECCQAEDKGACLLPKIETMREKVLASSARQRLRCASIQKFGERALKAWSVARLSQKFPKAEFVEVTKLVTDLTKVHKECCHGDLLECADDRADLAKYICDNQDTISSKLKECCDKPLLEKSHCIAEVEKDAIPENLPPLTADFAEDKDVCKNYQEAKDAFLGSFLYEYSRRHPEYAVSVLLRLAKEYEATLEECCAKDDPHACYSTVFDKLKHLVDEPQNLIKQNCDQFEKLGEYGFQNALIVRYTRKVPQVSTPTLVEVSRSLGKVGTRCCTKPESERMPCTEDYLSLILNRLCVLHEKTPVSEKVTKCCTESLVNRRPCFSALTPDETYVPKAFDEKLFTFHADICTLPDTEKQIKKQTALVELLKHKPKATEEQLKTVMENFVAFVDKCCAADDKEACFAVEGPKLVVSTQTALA

B1: anti-DENV NS1 monoclonal antibody mAb 33D2 (antibody, V domains shown)
VH: DVQLQESGPGLVKPSQSLSLTCTVTGYSITSDYAWNWIRQFPGNKLEWMGFISYSGSARYNPSLISRTSITRDTSKNQFFLHLNSVTTEDTAIYYCARVERLGYFDVWGAGTTVTVSS
VL: DIVLTQSPASLAVSLGQRASISCKASQSVDYDGDSYMHWYQQKPGQPFKLLIYAASNLESGIPARFSGSGSGTVFTLNIHPVEEEDAATYYCQQSNEDPTFGGGTRLEIKR
notes: also called anti-NS1 mAb 33D2; anti-DENV antibody 33D2
For B1, the binding result in assay [1] was “no binding”; in assay [2], “binds”.
